Publication PMC5790919, “UDP-Glucuronic Acid Transport Is Required for Virulence of Cryptococcus neoformans” (mBio, 2018)

Test system: O=C(O)[C@H]1O[C@H](OP(=O)(O)OP(=O)(O)OC[C@H]2O[C@@H](n3ccc(=O)[nH]c3=O)[C@H](O)[C@@H]2O)[C@H](O)[C@@H](O)[C@@H]1O
Assay: cells, lysate or membranes
Details: proteoliposomes preloaded with 10 mM UMP (antiport), 2 min uptake; transport; kcat printed as turnover rate

Substance: Uut1 (Cryptococcus neoformans H99)
- Km: 0.6 ± 0.1 µM
- kcat: 0.08 s⁻¹
